# Laboratory results reported in the supplement of paper PMC9112550, “Optimization of the antimicrobial peptide Bac7 by deep mutational scanning” (BMC Biology, 2022).
# Test system: Escherichia coli TOP10
# Assay: shrunken log2 fold change of peptide-encoding DNA abundance (4.5 h post-induction vs induction); higher = less antimicrobial activity (less host growth inhibition)
# Settings: time post-induction: 4.5 h; library: site-saturation at positions 5, 18, 19, 20
# 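Further: peptides expressed intracellularly from a pBAD plasmid library in pooled LB shake-flask culture, induced with 0.3% L-arabinose, DNA abundance read by NGS, three biological replicates, DESeq2 with apeglm shrinkage.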
row,Sequence,shrunken log2 fold change
1,RRIRRRPPRLPRPRPRPNHNPRP,-0.329
2,RRIRGRPPRLPRPRPRPSRPPRP,0.624
3,RRIRHRPPRLPRPRPRPMMNPRP,-0.0135
4,RRIRMRPPRLPRPRPRPKTLPRP,0.687
5,RRIRMRPPRLPRPRPRPIPKPRP,0.0362
6,RRIRGRPPRLPRPRPRPARRPRP,0.739
7,RRIRGRPPRLPRPRPRPHVAPRP,0.724
8,RRIRIRPPRLPRPRPRPNFYPRP,-0.565
9,RRIRERPPRLPRPRPRPCTNPRP,-0.559
10,RRIRPRPPRLPRPRPRPTPTPRP,0.483
11,RRIRIRPPRLPRPRPRPRNVPRP,-0.247
12,RRIRLRPPRLPRPRPRPRIIPRP,-1.12
13,RRIRVRPPRLPRPRPRPMKHPRP,-0.525
14,RRIRNRPPRLPRPRPRPIFGPRP,-0.0237
15,RRIRVRPPRLPRPRPRPYKNPRP,-0.848
16,RRIRCRPPRLPRPRPRPCQHPRP,-0.161
17,RRIRPRPPRLPRPRPRPFEFPRP,0.0458
18,RRIRERPPRLPRPRPRPSHQPRP,-0.19
19,RRIRSRPPRLPRPRPRPQCVPRP,-0.204
20,RRIRFRPPRLPRPRPRPLAQPRP,0.097
21,RRIRDRPPRLPRPRPRPHGWPRP,0.861
22,RRIRERPPRLPRPRPRPSIHPRP,-0.147
23,RRIRRRPPRLPRPRPRPLRQPRP,1.04
24,RRIRLRPPRLPRPRPRPTSIPRP,-0.178
25,RRIRYRPPRLPRPRPRPKFNPRP,-1.1

row,Sequence,shrunken log2 fold change
1,RRIRERPPRLPRPRPRPLRAPRP,0.348
2,RRIRCRPPRLPRPRPRPACMPRP,-0.162
3,RRIRTRPPRLPRPRPRPFDNPRP,-1.32
4,RRIRKRPPRLPRPRPRPITLPRP,-0.0554
5,RRIRKRPPRLPRPRPRPRPSPRP,0.585
6,RRIRRRPPRLPRPRPRPHRCPRP,0.0585
7,RRIRNRPPRLPRPRPRPISQPRP,-0.261
8,RRIRCRPPRLPRPRPRPFQFPRP,0.133
9,RRIRARPPRLPRPRPRPGCLPRP,0.419
10,RRIRMRPPRLPRPRPRPGWHPRP,0.41
11,RRIRGRPPRLPRPRPRPFNDPRP,-0.753
12,RRIRGRPPRLPRPRPRPPGQPRP,0.976
13,RRIRNRPPRLPRPRPRPWSWPRP,0.266
14,RRIRIRPPRLPRPRPRPSISPRP,-0.046
15,RRIRHRPPRLPRPRPRPFKSPRP,0.00748
16,RRIRGRPPRLPRPRPRPLHEPRP,0.74
17,RRIRNRPPRLPRPRPRPPYDPRP,-0.561
18,RRIRDRPPRLPRPRPRPQNTPRP,-0.605
19,RRIRCRPPRLPRPRPRPQLGPRP,-0.00405
20,RRIRGRPPRLPRPRPRPPIGPRP,0.735
21,RRIRIRPPRLPRPRPRPAVCPRP,-0.214
22,RRIRARPPRLPRPRPRPRNKPRP,0.271
23,RRIRKRPPRLPRPRPRPVVCPRP,0.126
24,RRIRSRPPRLPRPRPRPMSRPRP,0.0278
25,RRIRGRPPRLPRPRPRPDLDPRP,1.21

row,Sequence,shrunken log2 fold change
1,RRIRTRPPRLPRPRPRPRLEPRP,0.32
2,RRIRSRPPRLPRPRPRPSTQPRP,2.48
3,RRIRFRPPRLPRPRPRPLMFPRP,-0.695
4,RRIRCRPPRLPRPRPRPVKSPRP,0.967
5,RRIRYRPPRLPRPRPRPCMEPRP,-0.0771
6,RRIRARPPRLPRPRPRPPHTPRP,0.739
7,RRIRARPPRLPRPRPRPRTSPRP,0.382
8,RRIRTRPPRLPRPRPRPCNLPRP,-0.00247
9,RRIRMRPPRLPRPRPRPRAIPRP,0.52
10,RRIRLRPPRLPRPRPRPALYPRP,0.193
11,RRIRFRPPRLPRPRPRPEMCPRP,-0.0817
12,RRIRRRPPRLPRPRPRPMDGPRP,0.0167
13,RRIRWRPPRLPRPRPRPAHYPRP,-0.145
14,RRIRERPPRLPRPRPRPTVNPRP,-0.129
15,RRIRQRPPRLPRPRPRPEDYPRP,-0.0734
16,RRIRNRPPRLPRPRPRPTEIPRP,-0.319
17,RRIRWRPPRLPRPRPRPWSSPRP,-0.0663
18,RRIRMRPPRLPRPRPRPSSVPRP,3.19
19,RRIRDRPPRLPRPRPRPQPFPRP,-0.0264
20,RRIRFRPPRLPRPRPRPIHKPRP,-0.775
21,RRIRERPPRLPRPRPRPMTFPRP,-0.081
22,RRIRIRPPRLPRPRPRPCHNPRP,-0.293
23,RRIRFRPPRLPRPRPRPMDKPRP,-0.301
24,RRIRNRPPRLPRPRPRPTCSPRP,-0.261
25,RRIRVRPPRLPRPRPRPIMRPRP,0.0562

row,Sequence,shrunken log2 fold change
1,RRIRWRPPRLPRPRPRPKGQPRP,-0.0148
2,RRIRGRPPRLPRPRPRPPKTPRP,1.15
3,RRIRLRPPRLPRPRPRPGGAPRP,0.384
4,RRIRGRPPRLPRPRPRPCSQPRP,0.19
5,RRIRRRPPRLPRPRPRPDKKPRP,0.0135
6,RRIRQRPPRLPRPRPRPSQIPRP,-0.0855
7,RRIRHRPPRLPRPRPRPDDRPRP,-0.144
8,RRIRGRPPRLPRPRPRPHVQPRP,0.262
9,RRIRRRPPRLPRPRPRPPDPPRP,0.707
10,RRIRTRPPRLPRPRPRPMKRPRP,0.298
11,RRIRVRPPRLPRPRPRPPGSPRP,0.342
12,RRIRERPPRLPRPRPRPNQLPRP,-0.0673
13,RRIRDRPPRLPRPRPRPWCIPRP,-0.383
14,RRIRYRPPRLPRPRPRPVGWPRP,0.344
15,RRIRFRPPRLPRPRPRPQYYPRP,-0.846
16,RRIRARPPRLPRPRPRPQSSPRP,-0.0298
17,RRIRMRPPRLPRPRPRPDYEPRP,-0.0178
18,RRIRWRPPRLPRPRPRPEVMPRP,0.00589
19,RRIRIRPPRLPRPRPRPTVFPRP,-0.237
20,RRIRLRPPRLPRPRPRPCYVPRP,-1.08
21,RRIRGRPPRLPRPRPRPQWGPRP,0.376
22,RRIRCRPPRLPRPRPRPKQAPRP,-0.0334
23,RRIRKRPPRLPRPRPRPYCCPRP,-0.237
24,RRIRYRPPRLPRPRPRPHDGPRP,0.015
25,RRIRNRPPRLPRPRPRPIETPRP,-0.0081

row,Sequence,shrunken log2 fold change
1,RRIRRRPPRLPRPRPRPGMAPRP,0.339
2,RRIRGRPPRLPRPRPRPDHGPRP,-0.0602
3,RRIRERPPRLPRPRPRPFIFPRP,-0.476
4,RRIRHRPPRLPRPRPRPQCKPRP,-0.161
5,RRIRMRPPRLPRPRPRPPYWPRP,0.37
6,RRIRMRPPRLPRPRPRPESRPRP,2.68
7,RRIRARPPRLPRPRPRPWVYPRP,-0.0996
8,RRIRHRPPRLPRPRPRPMVDPRP,-0.222
9,RRIRWRPPRLPRPRPRPNRTPRP,0.121
10,RRIRQRPPRLPRPRPRPMSGPRP,0.076
11,RRIRLRPPRLPRPRPRPTGYPRP,-0.206
12,RRIRLRPPRLPRPRPRPLGHPRP,-0.0858
13,RRIRSRPPRLPRPRPRPTFRPRP,-0.0691
14,RRIRTRPPRLPRPRPRPQLPPRP,0.107
15,RRIRDRPPRLPRPRPRPTCGPRP,1.11
16,RRIRHRPPRLPRPRPRPRLQPRP,0.0915
17,RRIRMRPPRLPRPRPRPIMSPRP,0.0205
18,RRIRYRPPRLPRPRPRPYHRPRP,-0.236
19,RRIRTRPPRLPRPRPRPSHFPRP,-0.315
20,RRIRNRPPRLPRPRPRPKQKPRP,0.0568
21,RRIRDRPPRLPRPRPRPDDMPRP,0.155
22,RRIRVRPPRLPRPRPRPVALPRP,0.0693
23,RRIRARPPRLPRPRPRPSADPRP,0.804
24,RRIRARPPRLPRPRPRPYIQPRP,-0.873
25,RRIRSRPPRLPRPRPRPDHHPRP,-0.868
